The source of these data is patent US20050037404A1.

The target of the test is all of the coactivators tested. Description: cell-based or functional assay.

B1: VP16 transactivation domain linked to the ligand binding domain of SXR (VP-L-SXR), P06492 413-490; O75469 107-434 (protein)
chain: APPTDVSLGDELHLDGEDVAMAHADALDDFDLDMLGDGDSPGPGFTPHDSAPYGALDMADFEFEQMFTDALGIDEYGGMKKEMIMSDEAVEERRALIKRKKSERTGTQPLGVQGLTEEQRMMIRELMDAQMKTFDTTFSHFKNFRLPGVLSSGCELPESLQAPSREEAAKWSQVRKDLCSLKVSLQLRGEDGSVWNYKPPADSGGKEIFSLLPHMADMSTYMFKGIISFAKVISYFRDLPIEDQISLLKGAAFELCQLRFNTVFNAETGTWECGRLSYCLEDTAGGFQQLLLEPMLKFHYMLKKLQLHEEEYVLMQAISLFSPDRPGVLQHRVVDQLQEQFAITLKSYIECNRPQPAHRFLFLKIMAMLTELRSINAQHTQRLLRIQDIHPFATPLMQELFGITGS
As to B1, the Gal4 reporter activity in mammalian two-hybrid assay, 10 µM docetaxel against 10 µM paclitaxel (% less than with paclitaxel) lay within 25 to 40.
